Laboratory results published in the nanobody polyreactivity screen of Harvey et al. (2022).

Experiment: yeast display, Sf9 membrane polyspecificity reagent, FACS + sequencing; frameworks hold sequencing errors
In short: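 In a synthetic yeast display library (Saccharomyces cerevisiae BJ5465), nanobody expression was induced with galactose for 36–48 hours. FACS gates were set low and high (top ~1%) using anti-HA fluorescence for expression and streptavidin fluorescence for binding of the Sf9 membrane reagent. Each polyreactivity label is drawn from the gate of origin.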

Row | Sequence | polyreactivity (PSR sort gate)
1 | QVQLVESGGGLVQAGGSLRLSCAASGFTFARYAMGWYRQAPGKERELVAAITYSGGRTYYAVSVKGRFTISRDNAKNTVYLQMNSLKPEDTAVYYCAVKHSSPGRYYYWGQGTQVTVSS | high polyreactivity
2 | QVQLVESGGGLVQAGGSLRLSCAASGFTFARYAMGWYRQAPGKERELVAAMTYRGGSTYYADSVKGRFTISRDNAKNTVYLQMNSLKPEDTAVYYCNAGRLWFPGVPEYDYWGQGTQVTVSS | high polyreactivity
3 | QVQLVESGGGLVQAGGSLRLSCAASGFTFARYTMGWYRQAPGKERELVAAISSRGSSTYYADSVKGRFTISRDNAKNTVFLQMNSLKPEDTAVYYCAASPYDTQSLDYDYWGQGTQVTVSS | high polyreactivity
4 | QVQLVESGGGLVQAGGSLRLSCAASGFTFARYTMGWYRQAPGKERELVAAISSRGSSTYYADSVKGRFTISRDNAKNTVYLQMNSLKPEDTAVYYCAASPYDTQTLDYAYWGQGTQVTVSS | high polyreactivity
5 | QVQLVESGGGLVQAGGSLRLSCAASGFTFATYAMGWYRQAPGKKGRLVAAISNAGSTKYADSVKGRFTISRDNAKNTVYLQMNSLKPEDTAVYYCAASTLYASSYYLYDYWGQGTQVTVSS | high polyreactivity
6 | QVQLVESGGGLVQAGGSLRLSCAASGFTFAVYAMGWYRQAPGKERELVAAISRSGTRTYYADSVKGRFTISRDNAKNTVYLQMNSLKPEDTAVYYCAAPWTQILDYWGQGTQVTVSS | low polyreactivity
7 | QVQLVESGGGLVQAGGSLRLSCAASGFTFAYNAMGWYRQAPGKERELDAAINSSGGTTYYADSVKGRFTISRDNAKNTVYLQMNSLKPEDTAVYYCAAVYSTSYSGSFPGYDYWGQGTQVTVSS | low polyreactivity
8 | QVQLVESGGGLVQAGGSLRLSCAASGFTFAYYAMGWDRQSPGNEREFVAAISSRGGSTYADSVKGRFTISRDNAKNTVYLQMNSLKPEDTAVYYCNAVVPRSRYFSWTYDYWGQGTQVTVSS | high polyreactivity
9 | QVQLVESGGGLVQAGGSLRLSCAASGFTFAYYAMGWYRPAPGKERELVATIRGGGSTNYADSVKGRFTISRDNAKNTVYLQMNSLKPEDTAVYYCAAGYVWYFDYFSAYYWGQGTQVTVSS | high polyreactivity
10 | QVQLVESGGGLVQAGGSLRLSCAASGFTFAYYAMGWYRQAPGKERELVAAISWTGGSTYYADSVKGRFTISRDNAKNTVYLQMNSLKPEDTAVYYCAARGYRYRSYDYWGQGTQVTVSS | high polyreactivity
11 | QVQLVESGGGLVQAGGSLRLSCAASGFTFAYYAMGWYRQAPGKERELVAAITGSGGRTYYADSVKGRFTISRDNAKNTVYLQMNSLKPEDTAVYYCAADRTVYYLSRTGYDYWGQGTQVTVSS | high polyreactivity
12 | QVQLVESGGGLVQAGGSLRLSCAASGFTFAYYAMGWYRQAPGKERELVAAITVSGASTYYADSVKGRFTISRDNAKNTVYLQMNSLKPEDTAVYYCNASSVSFYYLEPSQPMDYWGQGTQVTVSS | high polyreactivity
13 | QVQLVESGGGLVQAGGSLRLSCAASGFTFAYYDMGWYRQAPGKERELVAAITWDGGSTYYADSVKGRFTISRDNAKNTVYLQMNSLKPEDTAVYYCAAPSGPYGYDYWGQGTQVTVSS | high polyreactivity
14 | QVQLVESGGGLVQAGGSLRLSCAASGFTFCDYAKGWYRQATGKERELVAAISDNDGSTDYADSVKGRFTISRDNAKNTVYLQMTRLKPEDSAVYYCNAESELPSKEGDYWGLGTQVTVSS | low polyreactivity
15 | QVQLVESGGGLVQAGGSLRLSCAASGFTFDDYTMGWYRQAPGKEREFVAAISSSGGSTYYADSVKGRFTISRDNAKNTVYLQMNSLKPEDTAVYYCAADARYYDYYEYDYWGQGTQVTVSS | high polyreactivity
16 | QVQLVESGGGLVQAGGSLRLSCAASGFTFDFYAMGWYRQAPGKERELVATISYSGASTYYADSVKGRFTISRDNAKNTIYLQLNSLKPEDTAVYYCNAESSYYYGTAAYEYWGQGTQVTVSS | low polyreactivity
17 | QVQLVESGGGLVQAGGSLRLSCAASGFTFDFYAMGWYRQAPGKERELVAVISSSGRTYYADSVKGRFTISRDNAKNTVYLQMNSLKPEDTAVYYCAAKAKRGHTYDYWGQGTQVTVSS | high polyreactivity
18 | QVQLVESGGGLVQAGGSLRLSCAASGFTFDGYAMGWYRQAPGKERELVAAISDSGDSTYYADSVKGRFTISRDNAKNTVYLQMNSLKPEDTAVYYCNADAYGTPEFTSYAVRYDYWGQGTQVTVSS | low polyreactivity
19 | QVQLVESGGGLVQAGGSLRLSCAASGFTFDIYGMGWYRQAPGNERDLVASITSRSARTYYAYSVKGRFTISRDNAKNTVYLQMNSLKPEDTAVYYCAAYYWQCTYDSRRTGWRLMNYWGQGTQVTVSS | high polyreactivity
20 | QVQLVESGGGLVQAGGSLRLSCAASGFTFDKKVMGWYRLAPGKERELVAANSVRGGTTYYADSVKGRFTISRDYAKNTVYLQMNSLKPEDSAVYDCAARAYGPPARYESWGQGTQVTVSS | low polyreactivity
21 | QVQLVESGGGLVQAGGSLRLSCAASGFTFDPYAMGWYRQAPGKERELVAAIDYSGGTTYYADSVKGRFTISRDNAKNTVYLQMNSLKPEDTAVYYCAAEYTYYHWWGYDYWGQGTQVTVSS | high polyreactivity
22 | QVQLVESGGGLVQAGGSLRLSCAASGFTFDQYAMGWYRQAPGKEREFVAAINQSTGSTYYADSVKGRFTISRDNAKNTVYLQMISLKPEDTAVYYCAAEESSTSSEYDYWGQGTQVTVSS | low polyreactivity

Row | Sequence | polyreactivity (PSR sort gate)
23 | QVQLVESGGGLVQAGGSLRLSCAASGFTFDSNAMGWYRQAPGKERELVAAISASGDSTYYADSVKGRFTISRDNAKNTVYLQMNSLKPEDTAVYYCAADRFYGGWRFDHWGQGTQVTVSS | low polyreactivity
24 | QVQLVESGGGLVQAGGSLRLSCAASGFTFDSYDMGGYRQAPGKERVLVAAITWSGGSTYYADSVKGRFTISRDYAKNTVYLQMNSLKPEDTAVYYGNADTGTYWVPWYHDGYDYWGQGTQVTVSS | low polyreactivity
25 | QVQLVESGGGLVQAGGSLRLSCAASGFTFDTNAMGWYRQAPGKERELVAAISWGGDTTYYADSVKGRFTISRDNAKNTVYLQMNSLKTEDTAVYYCNVYWYDWWGYDYWGQGTQVTVSS | high polyreactivity
26 | QVQLVESGGGLVQAGGSLRLSCAASGFTFDTYAMGWSRQAPGKERELVAAISSSGGSTYYADSVKGRFTISRDNAKNTVYLQMNSLKPEDTAVYYCNAYYRYSRGYDYWGQGTQVTVSS | high polyreactivity
27 | QVQLVESGGGLVQAGGSLRLSCAASGFTFDTYAMGWYRQAPGKERELVAAISWGGGSTFYADSVKGRFTISRDNAKNTVYLQMNSLKPEDTAVYYCAAEIPGYYVFNYGYWYYEYDYWGQGTQVTVSS | high polyreactivity
28 | QVQLVESGGGLVQAGGSLRLSCAASGFTFDTYTMGWYRQAPGKERELVAAISSGGNTNYADSVKGRFTISRDNAKNTVYLQMNSLKPEDTAVYYCARGATLLQYSYWGVYEYDSWGQGTQVTVSS | low polyreactivity
29 | QVQLVESGGGLVQAGGSLRLSCAASGFTFDYNAMGWYRQAPGKEREFVAAISSNGGSTYYADSVKGRFTISRDNAKNTVYFQMNSLKPEDTAVYYCAARYRSFVYWYGYWGQGTQVTVSS | high polyreactivity
30 | QVQLVESGGGLVQAGGSLRLSCAASGFTFDYNGLGWYRQAPGKERELVAGIRWSGGSTYYADSVKGRFTISRDNAKNTVYLQMNSLKPEDTAVYYCATSQYGYRSWPGLYYWGQGTQVTVSS | low polyreactivity
31 | QVQLVESGGGLVQAGGSLRLSCAASGFTFDYYTMGWYRQAPGKEREFVAAITWNGGTTNYADSVKGRFTISRDNAKYTVYLQMNSLKPEDTAVYYCAATAYWYFSNDSGRSYDYWGQGTQVTVSS | low polyreactivity
32 | QVQLVESGGGLVQAGGSLRLSCAASGFTFEGNAMGWYRQAPGKEREFVAAITSNGGGTYYADSVKGRFTISRDNAKNTVYLQMNSLKPEDTAVYDCAATYWTWYSWYDYWGQGTQVTVSS | high polyreactivity
33 | QVQLVESGGGLVQAGGSLRLSCAASGFTFEIYAMGWYRQAPGKERELVAAITWSGGSTDYADSVKGRFTISRDNAKNSVYFQMNSLKPEDTAVYYCAAVTVQYVGYGYWGQGTQVTVSS | low polyreactivity
34 | QVQLVESGGGLVQAGGSLRLSCAASGFTFERYTMGWYIQAPGKERELVATISRRSGRTSYADSVKGRFTISRDNAKNTVYLQMNSLKPEDTEVYYCAVDYAYPDRYDYWGQGTQVTVSS | high polyreactivity
35 | QVQLVESGGGLVQAGGSLRLSCAASGFTFETNAMGWYRQEPGQERELVAAISYSGGSTYYADSVKGRFTISRDNAKNTVYLQMNSLKPEDNAVYYCNKYYRGIFKAHRDYWGQGTQVTVSS | low polyreactivity
36 | QVQLVESGGGLVQAGGSLRLSCAASGFTFEYYALGWYRPAPGKERELVAAITYSGGSTYYADSVKGRFTISRDNAKITVYLQLNSLKPEDTAVYYCATESPRYRLYQSAVYGYFYWGQGTQVTVSS | high polyreactivity
37 | QVQLVESGGGLVQAGGSLRLSCAASGFTFFDYVMGWYRQAPGKERELVAAISSSGGSTNYADSVKGRFTISRDNAKNTVYLQMNSLKPQDTAVYYCAAEDFWDDVEYWGQGTQVTVSS | low polyreactivity
38 | QVQLVESGGGLVQAGGSLRLSCAASGFTFFKYAMGGYRQAPGKERELVAAITRNGGRTYYADSVKGRFTISRDNAKNTVYLHMNSLKPEDTAVYYCNAASVNGGRDFDYWGQGTQVTVSS | high polyreactivity
39 | QVQLVESGGGLVQAGGSLRLSCAASGFTFFMYAMGGDRQAPGKEREFVASITGSGGSTYYADSVKGRFTISRDTAKNSVYLQMNSLKPEDTAVYYCNKLSYGRSGYWGQGTQVTVSS | high polyreactivity
40 | QVQLVESGGGLVQAGGSLRLSCAASGFTFFPNAMGWYRQAPGKERELVADITDGGSTNYADSVKGRFTISRDNAKNTVYLQLNSLKPEDTADYYCNADWYGWFGGYEYWGQGTQVTVSS | high polyreactivity
41 | QVQLVESGGGLVQAGGSLRLSCAASGFTFFQNHRGWYRQAPGTERELVADISYRGRRPYYADSVKGRFTISRDNAKNTVYLQMNCLKPVDTAVYYCARRSSKPSSIQYYYCGQGTQVTVSS | high polyreactivity
42 | QVQLVESGGGLVQAGGSLRLSCAASGFTFFRNAIGWYRQAPGKERELVAAISGSGGSTYYADSVKGRFTISRDNAKNTVYLQMNSLKPEDTAVYYCAARTSYYVYRHPSGRYDYWGQGTQVTVSS | low polyreactivity
43 | QVQLVESGGGLVQAGGSLRLSCAASGFTFFYNAMGRYRQAPGKEREFVAAISGRGGTTYYADSVKGRFTISRDNAKNTVYLEMNSLKPEDTAVYYCAARSVSTLRYTSCKLSDDYWGQGTQVTVSS | high polyreactivity
